Data published in PMC5051681.

Assays:
[1] = molecular target: C1a - 10 nm - C2 SPASM biosensor (human) (UniProt P17252); assay: FRET or BRET; change in heteroFRET after addition of free calcium against the concentration of C1a - 10 nm - C2; Hill binding model; half-maximal value taken as an estimate of the dissociation constant
[2] = molecular target: PKC alpha C2 (UniProt P17252); settings: cited from earlier work
[3] = molecular target: PKCα sensor (N-terminal mCer, C-terminal mCit) with a TEV protease site between the C2 and kinase domains (human) (UniProt P17252); assay: dynamic light scattering; sensor pre-treated with TEV protease or BSA, or C2-mCit; relative increase in particle mass after 2 min with free calcium, matched concentration
[4] = molecular target: regulatory domains of PKCα with mCer (N-terminal TEV product of the PKCα sensor cut between C2 and kinase) (human); assay: as above

C1a - 10 nm - C2 SPASM biosensor (from UniProt P17252 32-100; P17252 158-292)
Kd [1]: 61.1 nM

PKC alpha C1a (from UniProt P17252)
Kd [2]: 4 nM

PKCα sensor (N-terminal mCer, C-terminal mCit) with a TEV protease site between the C2 and kinase domains (from UniProt P17252 1-672) (natural protein)
mean particle size increase after free calcium (DLS, normalised) [3]: 5.61

regulatory domains of PKCα with mCer (N-terminal TEV product of the PKCα sensor cut between C2 and kinase) (domain or fragment)
mean particle size increase after free calcium (DLS, normalised) [4]: 2.61
